Experiment [1] has as its target Flag-CD40L (AA 116 to 261) (human) (UniProt P29965). The experiment can be described thus: competitive ELISA, CD40:Fc coated on the plate, sCD40L at constant concentration. On the technique in general: In an ELISA, binding on a coated surface is turned into a signal by an enzyme label.
Experiment [2] shares this target. The experiment can be described thus: competitive ELISA, CD40:Fc coated on the plate, sCD40L at constant concentration, protein A 1 ug/ml.
The target of experiment [3] is fusion protein (1), FasL trimer (flag sequence, linker, hFasL AA 139 to 281) (human) (UniProt P48023). The experiment can be described thus: cell-based or functional assay.
For experiment [4], the target named is TRAIL trimer (flag sequence, linker, hTRAIL AA 95 to 281) (human) (UniProt P50591). The experiment can be described thus: BIAcore, 7 ul of 2.5 ug/ml Flag-TRAIL over immobilised M2 antibody.
Sequence of UniProt P50591 (P50591 other isoform, or with tags, fused parts or gaps limits assumed): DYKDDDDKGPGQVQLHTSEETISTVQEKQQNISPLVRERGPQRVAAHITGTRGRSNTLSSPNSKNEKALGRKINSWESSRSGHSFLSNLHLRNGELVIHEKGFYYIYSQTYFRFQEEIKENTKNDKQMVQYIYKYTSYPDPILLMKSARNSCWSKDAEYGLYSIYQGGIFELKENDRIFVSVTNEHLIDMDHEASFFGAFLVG
Experiment [5] concerns the target fusion protein (1), FasL trimer (flag sequence, linker, hFasL AA 139 to 281) (human) (UniProt P48023). The experiment can be described thus: BIAcore, 7 ul of 2.5 ug/ml Flag-FasL over immobilised M2 antibody.
The target of experiment [6] is fusion protein (5), TRAIL-ACRP30 (murine; human) (UniProt Q60994). As to the kind of experiment: cell-based or functional assay.
Sequence of UniProt Q60994 (Q60994 other isoform, or with tags, fused parts or gaps limits assumed): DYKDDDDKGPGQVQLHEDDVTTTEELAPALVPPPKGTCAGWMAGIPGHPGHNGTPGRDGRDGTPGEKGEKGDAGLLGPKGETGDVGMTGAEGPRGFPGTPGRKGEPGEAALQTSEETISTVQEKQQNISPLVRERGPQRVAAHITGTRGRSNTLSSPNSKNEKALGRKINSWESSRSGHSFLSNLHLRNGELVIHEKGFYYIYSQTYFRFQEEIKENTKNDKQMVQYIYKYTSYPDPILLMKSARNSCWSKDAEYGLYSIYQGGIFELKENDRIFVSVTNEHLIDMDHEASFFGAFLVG
For experiment [7], the target named is fusion protein (3), super FasL (human) (UniProt P48023). The experiment can be described thus: cell-based or functional assay.
Experiment [8] addresses TNF receptor 2 (TNF-R2) on CT6 cells (mouse (on CT6 cells of mice)) (UniProt P25119). As to the kind of experiment: cell-based or functional assay.
Sequence of UniProt P25119 (P25119 23-474): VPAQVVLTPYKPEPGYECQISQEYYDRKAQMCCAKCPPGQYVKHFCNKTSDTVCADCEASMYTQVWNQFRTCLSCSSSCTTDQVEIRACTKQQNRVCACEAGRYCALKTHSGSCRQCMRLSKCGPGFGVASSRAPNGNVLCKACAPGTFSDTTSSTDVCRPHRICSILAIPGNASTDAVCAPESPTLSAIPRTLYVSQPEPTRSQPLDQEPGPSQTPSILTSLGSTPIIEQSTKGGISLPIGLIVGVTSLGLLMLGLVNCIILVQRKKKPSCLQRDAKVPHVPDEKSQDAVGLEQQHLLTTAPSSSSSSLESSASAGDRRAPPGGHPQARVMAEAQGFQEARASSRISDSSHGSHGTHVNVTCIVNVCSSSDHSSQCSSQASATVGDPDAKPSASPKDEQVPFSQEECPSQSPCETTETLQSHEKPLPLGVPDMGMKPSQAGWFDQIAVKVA
Experiment [9] deals with fusion protein (1), FasL trimer (flag sequence, linker, hFasL AA 139 to 281) (human) (UniProt P48023). As to the kind of experiment: BIAcore, Flag-FasL captured on an M2-modified CM5 chip, receptor fusion protein injected. (In general: Surface plasmon resonance follows binding to a sensor surface in real time, without labels.)
Experiment [10] shares this target. The experiment can be described thus: cell-based or functional assay. The source holds these as a separate data set.
For experiment [11] the target is unchanged. As to the kind of experiment: BIAcore, Flag-FasL captured on an M2-modified CM5 chip; reference Fas:Fc.

Data on six molecules can be found in patent US20040235117A1.

Values joined by “and” are separate entries in the source; they are usually repeats but may differ in a detail not shown here. Identical values can stand only once. Where only a bound is given, the exact number is not on record here.

Sequence of UniProt P29965 (P29965 other isoform, or with tags, fused parts or gaps limits assumed): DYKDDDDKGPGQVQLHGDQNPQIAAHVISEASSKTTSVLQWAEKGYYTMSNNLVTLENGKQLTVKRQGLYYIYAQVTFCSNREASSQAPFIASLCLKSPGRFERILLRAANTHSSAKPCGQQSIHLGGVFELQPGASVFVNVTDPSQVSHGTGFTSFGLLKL

In [1], CD40:COMP (receptor) registered a fold increase in the affinity (against CD40:Fc) of 30 fold.
As to “CD40:Fc/PA (from UniProt P25942 21-193) (Fc fusion)”, the fold increase in the affinity (against CD40:Fc) in experiment [2] stood at 8 fold.
“Fas:CMP (from UniProt P25445 1-170) (receptor)”: in experiment [3], the inhibition of sFasL-mediated lysis, fold less effective than Fas:COMP is 5 fold.
anti-flag M2 monoclonal antibody: the units bound (BIAcore response) in experiment [4] and in experiment [5] was 100 to 150 units in each case. In experiment [6], this molecule gave a cytotoxic assay on Jurkat cells, fold increase of apoptosis-inducing activity of over 10 fold. In experiment [7], the cytotoxic assay on A20 and Jurkat cells, fold increase of apoptotic activity is 2 fold and > 1.5 fold.
Take “fusion protein (6), TNFα-ACRP30 (from UniProt Q60994 18-111; P06804 77-235) (ligand)”: the 3[H]-thymidin incorporation into CT6 cells (cell proliferation) in [8] stood at 5 ng/mL.

B1: Fas:COMP (receptor, not shown: small tags and cut ends)
chain: QVTDINSKGLELRKTVTTVETQNLEGLHHDGQFCHKPCPPGERKARDCTVNGDEPDCVPCQEGKEYTDKAHFSSKCRRCRLCDEGHGLEVEINCTRTQNTKCRCKPNFFCNSTVCEHCDPCTKCEHGIIKECTLTSNTKCKEEGSPQPQPKPQPKPEPEGGCCQMLRELQETNAALQDVRELLRHRVKEITFLKNTVMECDACGMQPARTPGGGS
modifications: Assembles as a disulphide-linked pentamer through the COMP coiled coil (about 400 kDa by gel filtration). N-glycosylated.
For the molecule B1, the Kd – broadly, the constant that tells how readily two partners part at equilibrium – in [9] is 0.77 nM. The molecule further yielded an inhibitory activity in cytotoxicity tests on cell lines, fold over Fas:Fc in [10] of 10 to 20 fold. The fold lower dissociation constant than Fas:Fc in experiment [11] is 8 to 9 fold.
